According to patent US20180009871A1 (INTARCIA THERAPEUTICS, published 2018):
Where no end group is shown, it is not given here. [ ]: non-standard residue; d: D form. Aib = CC(C)(N)C(=O)O

B1: Compound A55 (peptide)
peptide: YSHGTFTSDYSKYLD[Aib]KRAQEFV[Aib]WLEDEPSSKSPPPS-OH
modifications: N-terminus assumed
SMILES: CC(C)C[C@H](NC(=O)[C@H](Cc1ccc(O)cc1)NC(=O)[C@H](CCCCN)NC(=O)[C@H](CO)NC(=O)[C@H](Cc1ccc(O)cc1)NC(=O)[C@H](CC(=O)O)NC(=O)[C@H](CO)NC(=O)[C@@H](NC(=O)[C@H](Cc1ccccc1)NC(=O)[C@@H](NC(=O)CNC(=O)[C@H](Cc1c[nH]cn1)NC(=O)[C@H](CO)NC(=O)[C@@H](N)Cc1ccc(O)cc1)[C@@H](C)O)[C@@H](C)O)C(=O)N[C@@H](CC(=O)O)C(=O)NC(C)(C)C(=O)N[C@@H](CCCCN)C(=O)N[C@@H](CCCNC(=N)N)C(=O)N[C@@H](C)C(=O)N[C@@H](CCC(N)=O)C(=O)N[C@@H](CCC(=O)O)C(=O)N[C@@H](Cc1ccccc1)C(=O)N[C@H](C(=O)NC(C)(C)C(=O)N[C@@H](Cc1c[nH]c2ccccc12)C(=O)N[C@@H](CC(C)C)C(=O)N[C@@H](CCC(=O)O)C(=O)N[C@@H](CC(=O)O)C(=O)N[C@@H](CCC(=O)O)C(=O)N1CCC[C@H]1C(=O)N[C@@H](CO)C(=O)N[C@@H](CO)C(=O)N[C@@H](CCCCN)C(=O)N[C@@H](CO)C(=O)N1CCC[C@H]1C(=O)N1CCC[C@H]1C(=O)N1CCC[C@H]1C(=O)N[C@@H](CO)C(=O)O)C(C)C
B2: Compound A56 (peptide)
peptide: YSHGTFTSDYSKYLD[Aib]KRAQEFV[Aib]WLEDEPKSKAPPPS-OH
modifications: N-terminus assumed
SMILES: CC(C)C[C@H](NC(=O)[C@H](Cc1ccc(O)cc1)NC(=O)[C@H](CCCCN)NC(=O)[C@H](CO)NC(=O)[C@H](Cc1ccc(O)cc1)NC(=O)[C@H](CC(=O)O)NC(=O)[C@H](CO)NC(=O)[C@@H](NC(=O)[C@H](Cc1ccccc1)NC(=O)[C@@H](NC(=O)CNC(=O)[C@H](Cc1c[nH]cn1)NC(=O)[C@H](CO)NC(=O)[C@@H](N)Cc1ccc(O)cc1)[C@@H](C)O)[C@@H](C)O)C(=O)N[C@@H](CC(=O)O)C(=O)NC(C)(C)C(=O)N[C@@H](CCCCN)C(=O)N[C@@H](CCCNC(=N)N)C(=O)N[C@@H](C)C(=O)N[C@@H](CCC(N)=O)C(=O)N[C@@H](CCC(=O)O)C(=O)N[C@@H](Cc1ccccc1)C(=O)N[C@H](C(=O)NC(C)(C)C(=O)N[C@@H](Cc1c[nH]c2ccccc12)C(=O)N[C@@H](CC(C)C)C(=O)N[C@@H](CCC(=O)O)C(=O)N[C@@H](CC(=O)O)C(=O)N[C@@H](CCC(=O)O)C(=O)N1CCC[C@H]1C(=O)N[C@@H](CCCCN)C(=O)N[C@@H](CO)C(=O)N[C@@H](CCCCN)C(=O)N[C@@H](C)C(=O)N1CCC[C@H]1C(=O)N1CCC[C@H]1C(=O)N1CCC[C@H]1C(=O)N[C@@H](CO)C(=O)O)C(C)C
B3: Compound A57 (peptide)
peptide: YSHGTFTSDYSKYLD[Aib]KRAQEFV[Aib]WLEDEPKSKQPPPS-OH
modifications: N-terminus assumed
SMILES: CC(C)C[C@H](NC(=O)[C@H](Cc1ccc(O)cc1)NC(=O)[C@H](CCCCN)NC(=O)[C@H](CO)NC(=O)[C@H](Cc1ccc(O)cc1)NC(=O)[C@H](CC(=O)O)NC(=O)[C@H](CO)NC(=O)[C@@H](NC(=O)[C@H](Cc1ccccc1)NC(=O)[C@@H](NC(=O)CNC(=O)[C@H](Cc1c[nH]cn1)NC(=O)[C@H](CO)NC(=O)[C@@H](N)Cc1ccc(O)cc1)[C@@H](C)O)[C@@H](C)O)C(=O)N[C@@H](CC(=O)O)C(=O)NC(C)(C)C(=O)N[C@@H](CCCCN)C(=O)N[C@@H](CCCNC(=N)N)C(=O)N[C@@H](C)C(=O)N[C@@H](CCC(N)=O)C(=O)N[C@@H](CCC(=O)O)C(=O)N[C@@H](Cc1ccccc1)C(=O)N[C@H](C(=O)NC(C)(C)C(=O)N[C@@H](Cc1c[nH]c2ccccc12)C(=O)N[C@@H](CC(C)C)C(=O)N[C@@H](CCC(=O)O)C(=O)N[C@@H](CC(=O)O)C(=O)N[C@@H](CCC(=O)O)C(=O)N1CCC[C@H]1C(=O)N[C@@H](CCCCN)C(=O)N[C@@H](CO)C(=O)N[C@@H](CCCCN)C(=O)N[C@@H](CCC(N)=O)C(=O)N1CCC[C@H]1C(=O)N1CCC[C@H]1C(=O)N1CCC[C@H]1C(=O)N[C@@H](CO)C(=O)O)C(C)C
B4: Compound A58 (peptide)
peptide: YSHGTFTSDYSKYLD[Aib]KRAQEFV[Aib]WLEDEPKSKSPPPS-OH
modifications: N-terminus assumed
SMILES: CC(C)C[C@H](NC(=O)[C@H](Cc1ccc(O)cc1)NC(=O)[C@H](CCCCN)NC(=O)[C@H](CO)NC(=O)[C@H](Cc1ccc(O)cc1)NC(=O)[C@H](CC(=O)O)NC(=O)[C@H](CO)NC(=O)[C@@H](NC(=O)[C@H](Cc1ccccc1)NC(=O)[C@@H](NC(=O)CNC(=O)[C@H](Cc1c[nH]cn1)NC(=O)[C@H](CO)NC(=O)[C@@H](N)Cc1ccc(O)cc1)[C@@H](C)O)[C@@H](C)O)C(=O)N[C@@H](CC(=O)O)C(=O)NC(C)(C)C(=O)N[C@@H](CCCCN)C(=O)N[C@@H](CCCNC(=N)N)C(=O)N[C@@H](C)C(=O)N[C@@H](CCC(N)=O)C(=O)N[C@@H](CCC(=O)O)C(=O)N[C@@H](Cc1ccccc1)C(=O)N[C@H](C(=O)NC(C)(C)C(=O)N[C@@H](Cc1c[nH]c2ccccc12)C(=O)N[C@@H](CC(C)C)C(=O)N[C@@H](CCC(=O)O)C(=O)N[C@@H](CC(=O)O)C(=O)N[C@@H](CCC(=O)O)C(=O)N1CCC[C@H]1C(=O)N[C@@H](CCCCN)C(=O)N[C@@H](CO)C(=O)N[C@@H](CCCCN)C(=O)N[C@@H](CO)C(=O)N1CCC[C@H]1C(=O)N1CCC[C@H]1C(=O)N1CCC[C@H]1C(=O)N[C@@H](CO)C(=O)O)C(C)C
B5: Compound A59 (peptide)
peptide: YSHGTFTSDYSKYLD[Aib]KRAQEFV[Aib]WLEDEPSSKQPPPS-OH
modifications: N-terminus assumed
SMILES: CC(C)C[C@H](NC(=O)[C@H](Cc1ccc(O)cc1)NC(=O)[C@H](CCCCN)NC(=O)[C@H](CO)NC(=O)[C@H](Cc1ccc(O)cc1)NC(=O)[C@H](CC(=O)O)NC(=O)[C@H](CO)NC(=O)[C@@H](NC(=O)[C@H](Cc1ccccc1)NC(=O)[C@@H](NC(=O)CNC(=O)[C@H](Cc1c[nH]cn1)NC(=O)[C@H](CO)NC(=O)[C@@H](N)Cc1ccc(O)cc1)[C@@H](C)O)[C@@H](C)O)C(=O)N[C@@H](CC(=O)O)C(=O)NC(C)(C)C(=O)N[C@@H](CCCCN)C(=O)N[C@@H](CCCNC(=N)N)C(=O)N[C@@H](C)C(=O)N[C@@H](CCC(N)=O)C(=O)N[C@@H](CCC(=O)O)C(=O)N[C@@H](Cc1ccccc1)C(=O)N[C@H](C(=O)NC(C)(C)C(=O)N[C@@H](Cc1c[nH]c2ccccc12)C(=O)N[C@@H](CC(C)C)C(=O)N[C@@H](CCC(=O)O)C(=O)N[C@@H](CC(=O)O)C(=O)N[C@@H](CCC(=O)O)C(=O)N1CCC[C@H]1C(=O)N[C@@H](CO)C(=O)N[C@@H](CO)C(=O)N[C@@H](CCCCN)C(=O)N[C@@H](CCC(N)=O)C(=O)N1CCC[C@H]1C(=O)N1CCC[C@H]1C(=O)N1CCC[C@H]1C(=O)N[C@@H](CO)C(=O)O)C(C)C
B6: Compound A60 (peptide)
peptide: YTHGTFTSDYSKYLD[Aib]KRAQEFV[Aib]WLEDEPSSGKPPPS-OH
modifications: N-terminus assumed
SMILES: CC(C)C[C@H](NC(=O)[C@H](Cc1ccc(O)cc1)NC(=O)[C@H](CCCCN)NC(=O)[C@H](CO)NC(=O)[C@H](Cc1ccc(O)cc1)NC(=O)[C@H](CC(=O)O)NC(=O)[C@H](CO)NC(=O)[C@@H](NC(=O)[C@H](Cc1ccccc1)NC(=O)[C@@H](NC(=O)CNC(=O)[C@H](Cc1c[nH]cn1)NC(=O)[C@@H](NC(=O)[C@@H](N)Cc1ccc(O)cc1)[C@@H](C)O)[C@@H](C)O)[C@@H](C)O)C(=O)N[C@@H](CC(=O)O)C(=O)NC(C)(C)C(=O)N[C@@H](CCCCN)C(=O)N[C@@H](CCCNC(=N)N)C(=O)N[C@@H](C)C(=O)N[C@@H](CCC(N)=O)C(=O)N[C@@H](CCC(=O)O)C(=O)N[C@@H](Cc1ccccc1)C(=O)N[C@H](C(=O)NC(C)(C)C(=O)N[C@@H](Cc1c[nH]c2ccccc12)C(=O)N[C@@H](CC(C)C)C(=O)N[C@@H](CCC(=O)O)C(=O)N[C@@H](CC(=O)O)C(=O)N[C@@H](CCC(=O)O)C(=O)N1CCC[C@H]1C(=O)N[C@@H](CO)C(=O)N[C@@H](CO)C(=O)NCC(=O)N[C@@H](CCCCN)C(=O)N1CCC[C@H]1C(=O)N1CCC[C@H]1C(=O)N1CCC[C@H]1C(=O)N[C@@H](CO)C(=O)O)C(C)C
B7: Compound A62 (peptide)
peptide: YTHGTFTSDYSKYLD[Aib]KRAQEFV[Aib]WLEDEPSSGAPPPS-OH
modifications: N-terminus assumed
SMILES: CC(C)C[C@H](NC(=O)[C@H](Cc1ccc(O)cc1)NC(=O)[C@H](CCCCN)NC(=O)[C@H](CO)NC(=O)[C@H](Cc1ccc(O)cc1)NC(=O)[C@H](CC(=O)O)NC(=O)[C@H](CO)NC(=O)[C@@H](NC(=O)[C@H](Cc1ccccc1)NC(=O)[C@@H](NC(=O)CNC(=O)[C@H](Cc1c[nH]cn1)NC(=O)[C@@H](NC(=O)[C@@H](N)Cc1ccc(O)cc1)[C@@H](C)O)[C@@H](C)O)[C@@H](C)O)C(=O)N[C@@H](CC(=O)O)C(=O)NC(C)(C)C(=O)N[C@@H](CCCCN)C(=O)N[C@@H](CCCNC(=N)N)C(=O)N[C@@H](C)C(=O)N[C@@H](CCC(N)=O)C(=O)N[C@@H](CCC(=O)O)C(=O)N[C@@H](Cc1ccccc1)C(=O)N[C@H](C(=O)NC(C)(C)C(=O)N[C@@H](Cc1c[nH]c2ccccc12)C(=O)N[C@@H](CC(C)C)C(=O)N[C@@H](CCC(=O)O)C(=O)N[C@@H](CC(=O)O)C(=O)N[C@@H](CCC(=O)O)C(=O)N1CCC[C@H]1C(=O)N[C@@H](CO)C(=O)N[C@@H](CO)C(=O)NCC(=O)N[C@@H](C)C(=O)N1CCC[C@H]1C(=O)N1CCC[C@H]1C(=O)N1CCC[C@H]1C(=O)N[C@@H](CO)C(=O)O)C(C)C

Tests used:
[1] = target: human GLP-1 receptor (GLP-1R) (human, UniProt P43220 24-463); assay: cell-based or functional assay
[2] = target: human glucagon receptor (GCGR) (human, UniProt P47871 26-477); assay: cell-based or functional assay

Sequence of human GLP-1 receptor (GLP-1R) (P43220 24-463): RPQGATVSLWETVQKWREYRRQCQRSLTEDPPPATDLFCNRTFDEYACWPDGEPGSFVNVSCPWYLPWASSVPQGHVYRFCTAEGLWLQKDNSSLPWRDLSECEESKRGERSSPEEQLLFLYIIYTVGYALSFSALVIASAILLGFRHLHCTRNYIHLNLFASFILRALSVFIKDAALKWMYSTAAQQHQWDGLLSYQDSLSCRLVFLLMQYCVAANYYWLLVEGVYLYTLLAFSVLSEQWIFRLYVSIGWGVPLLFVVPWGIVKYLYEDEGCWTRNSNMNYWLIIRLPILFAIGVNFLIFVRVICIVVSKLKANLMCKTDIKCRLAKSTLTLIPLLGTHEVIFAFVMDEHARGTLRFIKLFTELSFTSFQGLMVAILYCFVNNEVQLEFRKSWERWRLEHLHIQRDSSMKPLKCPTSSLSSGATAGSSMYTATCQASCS

Row | Binder | hGLP1 pEC50 (cAMP) [1] | hGCGR pEC50 (cAMP) [2]
1 | B1 | < 9 pEC50 | 12.2 pEC50
2 | B2 | < 9 pEC50 | 12.3 pEC50
3 | B3 | < 9 pEC50 | 12 pEC50
4 | B4 | < 9 pEC50 | 12.2 pEC50
5 | B5 | < 9 pEC50 | 12.2 pEC50
6 | B6 | < 9 pEC50 | 11.3 pEC50
7 | YSHGTFTSDYSKYLDSARAQEFVKWLEDEPSSGKPPPS-OH [Compound A61] | < 9 pEC50 | 11.4 pEC50
8 | B7 | < 9 pEC50 | 11.5 pEC50
9 | YTHGTFTSDYSKYLDSARAQEFVKWLEDEPSSGAPPPS-OH [Compound A63] | < 9 pEC50 | 10.4 pEC50
